Data: publication PMC12421817, “c-di-GMP regulates bacterial NAD biosynthesis via targeting the transcriptional repressor NadR” (mBio, 2025)
Where a chain is given by its changes, count along the chain named.

Tests used:
[1] = molecular target: T1, NadR R212A R212A (Salmonella enterica serovar Typhimurium) (UniProt P24518); experiment: EMSA; conditions: EMSA: 50 ng DNA, 20 mM Tris pH 7.5, 100 mM NaCl, 10% glycerol, 4 mM MgCl2, 1% NP-40, 1 mM DTT, 25 uL, 20 min room temperature; 6% native PAGE, 0.5x TBE, SYBR …
T1 sequence: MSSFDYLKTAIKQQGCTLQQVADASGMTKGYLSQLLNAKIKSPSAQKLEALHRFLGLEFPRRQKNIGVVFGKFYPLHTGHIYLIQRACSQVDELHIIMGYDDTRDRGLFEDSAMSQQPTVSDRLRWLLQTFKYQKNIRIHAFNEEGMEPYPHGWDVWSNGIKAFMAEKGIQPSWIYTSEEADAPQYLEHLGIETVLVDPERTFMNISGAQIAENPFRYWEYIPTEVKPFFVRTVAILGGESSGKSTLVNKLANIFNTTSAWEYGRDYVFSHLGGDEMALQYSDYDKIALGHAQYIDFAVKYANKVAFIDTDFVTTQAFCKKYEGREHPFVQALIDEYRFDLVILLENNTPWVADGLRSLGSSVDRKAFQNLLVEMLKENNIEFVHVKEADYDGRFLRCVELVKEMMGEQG

[2] = molecular target: T2, NadR H80A H80A (Salmonella enterica serovar Typhimurium) (UniProt P24518); experiment: EMSA; conditions: EMSA: 50 ng DNA, 20 mM Tris pH 7.5, 100 mM NaCl, 10% glycerol, 4 mM MgCl2, 1% NP-40, 1 mM DTT, 25 uL, 20 min room temperature; 6% native PAGE, 0.5x TBE, SYBR …
T2 sequence: T1 sequence with H80A, A212R

| Sequence | binding [1] | binding [2] |
| --- | --- | --- |
| GGTTCTTGTTTAATTTACTAAACATGGTTGCGGCAGATTAGCACTATATGGCGCTAAAAAGCACGTTATGATTTCGCTGGTGTTGTGCTTATTAAACATAAAATAAAAATACGGCGAGAGATAAACGGCAAAAAATATTTTATAGGGCAGGGTGTTAGCGTCGGATTTTGTAGTGAAATAAAGATGCTGTTAGGTTACTC (double strand) [nadB promoter] | binds | binds |
| GCTCATCGTGGCTTCTCGTTTTACTGACTTAACGAAACAACCGAATGAAAGCGTAATAAACGCCACAATCGGTTAATTTGTTTTATATGCTAAACAAGATAGCTGATTCAATAAGGAAAGTCACAATAATTACGTAGCCCCGTATCTGATGGCGGCGTAACGTCTTATCTGGCCTACGTGAGCGGTGCCGTCTGTAGGCCTGAT (double strand) [nadA-pnuC promoter] | binds | binds |
